According to paper PMC12447514, “Modulation of Amyloid‑β Aggregation by Surface Proteins from Pathogens Associated with Alzheimer’s Disease” (ACS Chemical Neuroscience, 2025):

Biological target: the molecule itself
Experiment: SEC; HiLoad 16/600 Superdex 75 pg in PBS or 20 mM sodium phosphate, 200 μM EDTA pH 8; oligomeric state verified in Supporting Figure S2 (method not shown)

B1: Borrelia burgdorferi outer surface protein C (residues 11-191) (natural protein)
chain: ASTNPDESAKGPNLTEISKKITDSNAVVLAVKEVEALLSSIDELAKTIGKKIEANGLGNEADKNGSLLAGAYAISTLIKQKLDGLKGLEGLNKEIAEAKKCSEAFTKKLQDSNADLGKHNATDADSKEAILKTNGTKTKGAKELEELFKSVESLSKAAKEALSNSVKELTSPVVAESPKKP
notes: outer surface protein C of Borrelia burgdorferi sensu lato, UniProt P94245, residues 11-191; the N-terminal signal peptide was replaced by His-tagged polyubiquitin-B and a TEV protease cleavage site; also called OspC; Bb outer surface protein C; not shown: polyubiquitin-B with C-terminal His-tag (UniProt J3QS39), N-terminal, cleaved
stoichiometry N: 2
